{"source": "patent US20260151494A1", "about": "(ARO BIOTHERAPEUTICS, published 2026)", "binders": {"B1": {"name": "CD71-binding FN3 domain of SEQ ID NO: 546 (designed binder)", "chain": "MLPAPKNLVVSRVTEDSARLSWTAPDAAFDSFEIAYIEVNIQGEAIVLTVPGSERSYDLTGLKPGTEYYVHIGGVKGGPSSSPLSAIFTT"}, "B2": {"name": "CD71-binding FN3 domain of SEQ ID NO: 551 (designed binder)", "chain": "B1 chain with I37F, V39T, N40C, I41R, Q42T, Y69W, H71Q, P79N, S80W, S82A"}, "B3": {"name": "CD71-binding FN3 domain of SEQ ID NO: 552 (designed binder)", "chain": "MLPAPKNLVVSRVTEDSARLSWTAPDAAFDSFFIGYLEPQPPGEAIHLFVPGSERSYDLTGLKPGTEYNVTIQGVKGGFPSMPLSAIFTT"}, "B4": {"name": "CD71-binding FN3 domain of SEQ ID NO: 549 (designed binder)", "chain": "B3 chain with H47S, F49W"}, "B5": {"name": "CD71-binding FN3 domain of SEQ ID NO: 550 (designed binder)", "chain": "B3 chain with M82I, S85Y, I87R"}, "B6": {"name": "CD71-binding FN3 domain of SEQ ID NO: 548 (designed binder)", "chain": "B3 chain with H47Y"}, "B7": {"name": "CD71-binding FN3 domain of SEQ ID NO: 547 (designed binder)", "chain": "B3 chain with F49I, M82D, S85V, I87S"}, "B8": {"name": "CD71-binding FN3 domain of SEQ ID NO: 340 (designed binder)", "chain": "MSLPAPKNLVVSRVTEDSSRLSWTAPDAAFDSFEIGYFENLYLGEAIVLTVPGSERSYDLTGLKPGTEYWVQIGGVKGGNWSAPLSAIFTT", "notes": "not shown: C-terminal poly-histidine tag added to each FN3 domain"}, "B9": {"name": "CD71-binding FN3 domain of SEQ ID NO: 339 (designed binder)", "chain": "B8 chain with S19A, F38W, N40M, L41S, L43Y, W70G, Q72S, N80R, A83L", "notes": "as for B8"}, "B10": {"name": "CD71-binding FN3 domain of SEQ ID NO: 345 (designed binder)", "chain": "B8 chain with S19A, R20H, L41D, L43F, W70V, Q72F, N80K", "notes": "as for B8"}, "B11": {"name": "CD71-binding FN3 domain of SEQ ID NO: 344 (designed binder)", "chain": "B8 chain with V10F, S19A, F38W, L41A, L43K", "notes": "as for B8"}, "B12": {"name": "CD71-binding FN3 domain of SEQ ID NO: 338 (designed binder)", "chain": "B8 chain with S19A, W70C, Q72Y, G74C, N80R, W81D, A83M", "notes": "as for B8"}, "B13": {"name": "CD71-binding FN3 domain of SEQ ID NO: 336 (designed binder)", "chain": "MSLPAPKNLVVSRVTEDSARLSWTAPDAAFDSFNIMYHEHYDNGEAIVLTVPGSERSYDLTGLKPGTEYSVVINGVKGGPHSAPLSAIFTT", "notes": "as for B8"}, "B14": {"name": "CD71-binding FN3 domain of SEQ ID NO: 373 conjugated to KRAS2 siRNA (designed binder)", "chain": "B3 chain with H47S, M82D, S85V, I87S", "modifications": "conjugated to KRAS2 tool siRNA; site and linker not stated"}, "B15": {"name": "CD71-binding FN3 domain of SEQ ID NO: 516 conjugated to KRAS2 siRNA (designed binder)", "chain": "B3 chain with H47S, F49W, M82S, S85V, I87Y", "modifications": "conjugated to KRAS2 tool siRNA; site and linker not stated"}, "B16": {"name": "CD71-binding FN3 domain of SEQ ID NO: 400 conjugated to KRAS2 siRNA (designed binder)", "chain": "B3 chain with M82G, S85H, I87T", "modifications": "conjugated to KRAS2 tool siRNA; site and linker not stated"}, "B17": {"name": "CD71-binding FN3 domain of SEQ ID NO: 478 conjugated to KRAS2 siRNA (designed binder)", "chain": "B3 chain with F49Y, M82V, S85I, I87K", "modifications": "conjugated to KRAS2 tool siRNA; site and linker not stated"}, "B18": {"name": "CD71-binding FN3 domain of SEQ ID NO: 447 conjugated to KRAS2 siRNA (designed binder)", "chain": "B3 chain with H47Y, F49Y, M82Y, S85T, I87Q", "modifications": "conjugated to KRAS2 tool siRNA; site and linker not stated"}, "B19": {"name": "CD71-binding FN3 domain of SEQ ID NO: 529 conjugated to KRAS2 siRNA (designed binder)", "chain": "B3 chain with H47D, F49Y, M82L, S85Q, I87H", "modifications": "conjugated to KRAS2 tool siRNA; site and linker not stated"}, "B20": {"name": "CD71-binding FN3 domain of SEQ ID NO: 476 conjugated to KRAS2 siRNA (designed binder)", "chain": "B3 chain with F49Q, M82I, S85I, I87V", "modifications": "conjugated to KRAS2 tool siRNA; site and linker not stated"}, "B21": {"name": "CD71-binding FN3 domain of SEQ ID NO: 496 conjugated to KRAS2 siRNA (designed binder)", "chain": "B3 chain with H47I, F49W, M82V, S85I, I87Q", "modifications": "conjugated to KRAS2 tool siRNA; site and linker not stated"}, "B22": {"name": "CD71-binding FN3 domain of SEQ ID NO: 472 conjugated to KRAS2 siRNA (designed binder)", "chain": "B3 chain with H47E, F49Y, M82L, S85V, I87T", "modifications": "conjugated to KRAS2 tool siRNA; site and linker not stated"}, "B23": {"name": "CD71-binding FN3 domain of SEQ ID NO: 508 conjugated to KRAS2 siRNA (designed binder)", "chain": "B3 chain with H47T, F49S, M82E, S85I", "modifications": "conjugated to KRAS2 tool siRNA; site and linker not stated"}}, "note": "Numbering of substitutions follows the chain as printed.", "data": [{"target": "T1, apical domain of human CD71 (human, UniProt P02786 189-383, limits assumed)", "T1 construct": "domain: apical domain; Screen 4 panned against human apical domains; also called human apical domain", "T1 sequence (P02786 189-383 limits assumed)": "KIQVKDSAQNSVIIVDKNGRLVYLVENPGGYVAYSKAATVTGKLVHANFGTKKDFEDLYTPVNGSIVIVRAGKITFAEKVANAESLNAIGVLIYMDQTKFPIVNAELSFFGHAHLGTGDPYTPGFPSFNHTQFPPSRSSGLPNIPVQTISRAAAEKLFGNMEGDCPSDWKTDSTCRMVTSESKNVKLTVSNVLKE", "assay": "primary ELISA screen, Screen 4; signal on apical domain over signal on HSA", "units": {"Apical domain:HSA": "ratio"}, "values": [{"binder": "B1", "Apical domain:HSA": 466}, {"binder": "B2", "Apical domain:HSA": 158}, {"binder": "B3", "Apical domain:HSA": 137}, {"binder": "B4", "Apical domain:HSA": 242}, {"binder": "B5", "Apical domain:HSA": 170}, {"binder": "B6", "Apical domain:HSA": 257}, {"binder": "B7", "Apical domain:HSA": 322}]}, {"target": "T2, apical domain of CD71 (Screen 3: 'cynomolgus apical domain of human CD71') (cynomolgus (as 'cynomolgus apical …))", "T2 construct": "domain: apical domain; Species is told ambiguously", "assay": "primary ELISA screen, RLU on apical domain over RLU on HSA", "units": {"Apical domain:HSA": "ratio"}, "values": [{"binder": "B8", "Apical domain:HSA": 180}, {"binder": "B9", "Apical domain:HSA": 690}, {"binder": "B10", "Apical domain:HSA": 195}, {"binder": "B11", "Apical domain:HSA": 92}, {"binder": "B12", "Apical domain:HSA": 125}, {"binder": "B13", "Apical domain:HSA": 256}]}, {"target": "T3, human CD71 extracellular domain (human, UniProt P02786 89-760)", "T3 construct": "also called hCD71; human CD71-ECD", "assay": "primary ELISA screen, RLU on human CD71-ECD over RLU on HSA", "units": {"hCD71:HSA": "ratio"}, "values": [{"binder": "B8", "hCD71:HSA": 106}, {"binder": "B9", "hCD71:HSA": 303}, {"binder": "B10", "hCD71:HSA": 108}, {"binder": "B11", "hCD71:HSA": 36}, {"binder": "B12", "hCD71:HSA": 57}, {"binder": "B13", "hCD71:HSA": 68}]}, {"target": "T4, human CD71 extracellular domain (human, UniProt P02786 89-760)", "T4 construct": "also called hCD71; CD71-ECD", "assay": "primary ELISA screen, Screen 4, luminescence; note: test concentration or dose not given here", "units": {"hCD71, RLU": "RLU"}, "values": [{"binder": "B1", "hCD71, RLU": "3.53e+06"}, {"binder": "B2", "hCD71, RLU": "1.17e+06"}, {"binder": "B3", "hCD71, RLU": "4.95e+06"}, {"binder": "B4", "hCD71, RLU": "2.86e+06"}, {"binder": "B5", "hCD71, RLU": "4.79e+06"}, {"binder": "B6", "hCD71, RLU": "4.73e+06"}, {"binder": "B7", "hCD71, RLU": "4.59e+06"}]}, {"target": "T1, apical domain of human CD71", "assay": "primary ELISA screen, Screen 4, luminescence", "units": {"Apical domain, RLU": "RLU"}, "values": [{"binder": "B1", "Apical domain, RLU": "4.4e+06"}, {"binder": "B2", "Apical domain, RLU": "4.07e+06"}, {"binder": "B3", "Apical domain, RLU": "5.7e+06"}, {"binder": "B4", "Apical domain, RLU": "3.49e+06"}, {"binder": "B5", "Apical domain, RLU": "5.8e+06"}, {"binder": "B6", "Apical domain, RLU": "5.29e+06"}, {"binder": "B7", "Apical domain, RLU": "5.35e+06"}]}, {"target": "T3, human CD71 extracellular domain", "assay": "primary ELISA screen, human CD71-ECD; note: test concentration or dose not given here", "units": {"RLU": "RLU"}, "values": [{"binder": "B8", "RLU": "3e+06"}, {"binder": "B9", "RLU": "2.14e+06"}, {"binder": "B10", "RLU": "2.55e+06"}, {"binder": "B11", "RLU": "1.33e+06"}, {"binder": "B12", "RLU": "2.29e+06"}, {"binder": "B13", "RLU": "1.15e+06"}]}, {"target": "T4, human CD71 extracellular domain", "assay": "primary ELISA screen, Screen 4; signal on hCD71 over signal on HSA", "units": {"hCD71:HSA": "ratio"}, "values": [{"binder": "B1", "hCD71:HSA": 374}, {"binder": "B2", "hCD71:HSA": 45}, {"binder": "B3", "hCD71:HSA": 119}, {"binder": "B4", "hCD71:HSA": 198}, {"binder": "B5", "hCD71:HSA": 141}, {"binder": "B6", "hCD71:HSA": 230}, {"binder": "B7", "hCD71:HSA": 277}]}, {"target": "T2, apical domain of CD71 (Screen 3: …)", "assay": "primary ELISA screen, apical domain of CD71; note: test concentration or dose not given here", "units": {"RLU": "RLU"}, "values": [{"binder": "B8", "RLU": "5.1e+06"}, {"binder": "B9", "RLU": "4.86e+06"}, {"binder": "B10", "RLU": "4.59e+06"}, {"binder": "B11", "RLU": "3.4e+06"}, {"binder": "B12", "RLU": "5.02e+06"}, {"binder": "B13", "RLU": "4.31e+06"}]}, {"target": "human CD71 on cells (SKBR3; SW620-rLuc-KRAS) (human, UniProt P02786 1-760)", "sequence (P02786 whole entry)": "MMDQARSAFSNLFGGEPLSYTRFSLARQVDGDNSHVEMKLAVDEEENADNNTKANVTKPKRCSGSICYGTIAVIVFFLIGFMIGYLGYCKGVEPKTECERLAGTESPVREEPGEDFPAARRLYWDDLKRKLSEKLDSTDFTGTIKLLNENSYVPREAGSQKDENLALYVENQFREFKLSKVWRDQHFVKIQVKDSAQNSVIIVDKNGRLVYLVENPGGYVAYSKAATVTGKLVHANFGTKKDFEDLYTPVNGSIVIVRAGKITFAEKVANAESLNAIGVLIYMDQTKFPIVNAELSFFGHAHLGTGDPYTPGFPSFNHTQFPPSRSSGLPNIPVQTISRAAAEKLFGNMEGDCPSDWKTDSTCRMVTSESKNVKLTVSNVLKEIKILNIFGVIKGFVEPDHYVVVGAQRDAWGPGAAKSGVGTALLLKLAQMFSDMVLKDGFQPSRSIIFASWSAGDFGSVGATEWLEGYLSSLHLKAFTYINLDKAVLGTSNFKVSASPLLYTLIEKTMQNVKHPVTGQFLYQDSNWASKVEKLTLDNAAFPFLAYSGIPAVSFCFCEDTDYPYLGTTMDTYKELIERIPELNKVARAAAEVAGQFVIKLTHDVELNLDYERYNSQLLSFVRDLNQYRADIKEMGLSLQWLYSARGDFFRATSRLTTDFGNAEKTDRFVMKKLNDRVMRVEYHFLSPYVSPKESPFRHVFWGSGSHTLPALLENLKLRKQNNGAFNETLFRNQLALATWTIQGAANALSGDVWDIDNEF", "assay": "cell-based or functional assay", "units": {"LSA EC50 (luciferase reporter assay, SW620-rLuc-KRAS cells, 72 h)": "nM"}, "values": [{"binder": "B14", "LSA EC50 (luciferase reporter assay, SW620-rLuc-KRAS cells, 72 h)": 0.15}, {"binder": "B15", "LSA EC50 (luciferase reporter assay, SW620-rLuc-KRAS cells, 72 h)": 0.6}, {"binder": "B16", "LSA EC50 (luciferase reporter assay, SW620-rLuc-KRAS cells, 72 h)": 0.24}, {"binder": "B17", "LSA EC50 (luciferase reporter assay, SW620-rLuc-KRAS cells, 72 h)": 0.21}, {"binder": "B18", "LSA EC50 (luciferase reporter assay, SW620-rLuc-KRAS cells, 72 h)": 0.53}, {"binder": "B19", "LSA EC50 (luciferase reporter assay, SW620-rLuc-KRAS cells, 72 h)": 0.52}, {"binder": "B20", "LSA EC50 (luciferase reporter assay, SW620-rLuc-KRAS cells, 72 h)": 0.31}, {"binder": "B21", "LSA EC50 (luciferase reporter assay, SW620-rLuc-KRAS cells, 72 h)": 0.22}, {"binder": "B22", "LSA EC50 (luciferase reporter assay, SW620-rLuc-KRAS cells, 72 h)": 0.15}, {"binder": "B23", "LSA EC50 (luciferase reporter assay, SW620-rLuc-KRAS cells, 72 h)": 0.6}]}]}
